Tested on: Bacillus subtilis
Assay: cleaved RNA product abundance (RNA/gDNA barcode ratio) relative to median wild-type variant (ratio to wild type); higher = more accumulation of the downstream cleavage product
Details: cleavage site: cggR-gapA (positions -7 to +36 mutated)
Summary of the method: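 In LB at 37°C, B. subtilis cultures went from OD600 0.0003 to 0.3. Their chromosomes held barcoded reporter mRNAs, truncated aprE or tetM, with RNase Y cleavage-site windows mutagenized via oligos at a 9% error rate. Cleaved RNA, chosen by gel, was reverse transcribed and barcode-sequenced alongside genomic DNA barcodes with UMI collapsing, giving a per-construct RNA:gDNA ratio scaled to the median construct with the unmutated site. This scaled ratio is termed cleaved product abundance.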

[1] = experiment (reporter, strain, medium): exp 2b: truncated aprE reporter, strain BJT200
[2] = experiment (reporter, strain, medium): exp 4a: truncated aprE reporter, strain BJT201 with 2% xylose (RNase J1 expressed)
[3] = experiment (reporter, strain, medium): exp 6: tetM reporter, strain 168

ACAGACGAAGGAGCCGCAAAGAAGTTATTAAGGGATGAATAATTGCTCAATATAAATATCTCTCACTTATTTAAA
cleaved RNA product abundance [1]: 0.0946
cleaved RNA product abundance [2]: 0.0655

ACAGACGAAGGAGCCGCAAAGAAGTTATTAAGGGATGAATAATTTCTCAATATAAATATCTCTCACTTATTTAAA
cleaved RNA product abundance [2]: 0.16

ACAGACGAAGGAGCCGCAAAGAAGTTATTAAGGGATGAATACTACCTCAATATAAATATCTCTCACTTATTTAAA
cleaved RNA product abundance [1]: 0.124
cleaved RNA product abundance [2]: 0.168

ACAGACGAAGGAGCCGCAAAGAAGTTATTAAGGGATGAATACTCACTCAATATAAATATCTCTCACTTATTTAAA
cleaved RNA product abundance [2]: 0.0953

ACAGACGAAGGAGCCGCAAAGAAGTTATTAAGGGATGAATACTCCATCAATATAAATATCTCTCACTTATTTAAA
cleaved RNA product abundance [1]: 0.102
cleaved RNA product abundance [2]: 0.137
cleaved RNA product abundance [3]: 0.152

ACAGACGAAGGAGCCGCAAAGAAGTTATTAAGGGATGAATACTCCCACAATATAAATATCTCTCACTTATTTAAA
cleaved RNA product abundance [2]: 0.139

ACAGACGAAGGAGCCGCAAAGAAGTTATTAAGGGATGAATACTCCCTAAATATAAATATCTCTCACTTATTTAAA
cleaved RNA product abundance [1]: 0.366

ACAGACGAAGGAGCCGCAAAGAAGTTATTAAGGGATGAATACTCCCTCAAAATAAATATCTCTCACTTATTTAAA
cleaved RNA product abundance [1]: 0.176
cleaved RNA product abundance [2]: 0.194

ACAGACGAAGGAGCCGCAAAGAAGTTATTAAGGGATGAATACTCCCTCAAGATAAATATCTCTCACTTATTTAAA
cleaved RNA product abundance [1]: 0.156

ACAGACGAAGGAGCCGCAAAGAAGTTATTAAGGGATGAATACTCCCTCAATAGAAATATCTCTCACTTATTTAAA
cleaved RNA product abundance [2]: 0.115

ACAGACGAAGGAGCCGCAAAGAAGTTATTAAGGGATGAATACTCCCTCAATATAAAAATCTCTCACTTATTTAAA
cleaved RNA product abundance [1]: 0.511
cleaved RNA product abundance [2]: 0.819

ACAGACGAAGGAGCCGCAAAGAAGTTATTAAGGGATGAATACTCCCTCAATATAAATATCTCTCACTTATTTAAA
cleaved RNA product abundance [1]: 0.565
cleaved RNA product abundance [2]: 0.732
cleaved RNA product abundance [3]: 0.566

ACAGACGAAGGAGCCGCAAAGAAGTTATTAAGGGATGAATACTCCCTCAATTTAAATATCTCTCACTTATTTAAA
cleaved RNA product abundance [2]: 0.167

ACAGACGAAGGAGCCGCAAAGAAGTTATTAAGGGATGAATACTCCCTCCATATAAATATCTCTCACTTATTTAAA
cleaved RNA product abundance [1]: 0.138
cleaved RNA product abundance [2]: 0.218

ACAGACGAAGGAGCCGCAAAGAAGTTATTAAGGGATGAATACTCCCTCTATATAAATATCTCTCACTTATTTAAA
cleaved RNA product abundance [1]: 0.275
cleaved RNA product abundance [2]: 0.259

ACAGACGAAGGAGCCGCAAAGAAGTTATTAAGGGATGAATACTCCCTTAATATAAATATCTCTCACTTATTTAAA
cleaved RNA product abundance [2]: 0.47

ACAGACGAAGGAGCCGCAAAGAAGTTATTAAGGGATGAATACTCCGTCAATATAAATATCTCTCACTTATTTAAA
cleaved RNA product abundance [2]: 0.126

ACAGACGAAGGAGCCGCAAAGAAGTTATTAAGGGATGAATACTCCTTCAATATAAATATCTCTCACTTATTTAAA
cleaved RNA product abundance [2]: 0.253

ACAGACGAAGGAGCCGCAAAGAAGTTATTAAGGGATGAATACTCTCTCAATATAAATATCTCTCACTTATTTAAA
cleaved RNA product abundance [2]: 0.226

ACAGACGAAGGAGCCGCAAAGAAGTTATTAAGGGATGAATACTGCCTCAATATAAATATCTCTCACTTATTTAAA
cleaved RNA product abundance [1]: 0.112

ACAGACGAAGGAGCCGCAAAGAAGTTATTAAGGGATGAATACTTCCTCAATATAAATATCTCTCACTTATTTAAA
cleaved RNA product abundance [1]: 0.156
cleaved RNA product abundance [2]: 0.247

ACAGACGAAGGAGCCGCAAAGAAGTTATTAAGGGATGAATAGTCCCTAAATATAAATATCTCTCACTTATTTAAA
cleaved RNA product abundance [2]: 0.547

ACAGACGAAGGAGCCGCAAAGAAGTTATTAAGGGATGAATAGTCCCTCAAAATAAATATCTCTCACTTATTTAAA
cleaved RNA product abundance [2]: 0.31

ACAGACGAAGGAGCCGCAAAGAAGTTATTAAGGGATGAATAGTCCCTCAATATAAAAATCTCTCACTTATTTAAA
cleaved RNA product abundance [2]: 1

ACAGACGAAGGAGCCGCAAAGAAGTTATTAAGGGATGAATAGTCCCTCAATATAAATATCTCTCACTTATTTAAA
cleaved RNA product abundance [1]: 0.912
cleaved RNA product abundance [2]: 0.857
cleaved RNA product abundance [3]: 1.25

ACAGACGAAGGAGCCGCAAAGAAGTTATTAAGGGATGAATAGTCCCTCATTATAAATATCTCTCACTTATTTAAA
cleaved RNA product abundance [2]: 0.235

ACAGACGAAGGAGCCGCAAAGAAGTTATTAAGGGATGAATAGTCCCTGAATATAAATATCTCTCACTTATTTAAA
cleaved RNA product abundance [2]: 0.334

ACAGACGAAGGAGCCGCAAAGAAGTTATTAAGGGATGAATAGTCCTTCAATATAAATATCTCTCACTTATTTAAA
cleaved RNA product abundance [2]: 0.359

ACAGACGAAGGAGCCGCAAAGAAGTTATTAAGGGATGAATATACCCTCAATATAAATATCTCTCACTTATTTAAA
cleaved RNA product abundance [2]: 0.485

ACAGACGAAGGAGCCGCAAAGAAGTTATTAAGGGATGAATATCCCCTCAATATAAATATCTCTCACTTATTTAAA
cleaved RNA product abundance [2]: 0.455

ACAGACGAAGGAGCCGCAAAGAAGTTATTAAGGGATGAATATGCCCTCAATATAAATATCTCTCACTTATTTAAA
cleaved RNA product abundance [2]: 0.363

ACAGACGAAGGAGCCGCAAAGAAGTTATTAAGGGATGAATATTCACTCAATATAAATATCTCTCACTTATTTAAA
cleaved RNA product abundance [2]: 0.18

ACAGACGAAGGAGCCGCAAAGAAGTTATTAAGGGATGAATATTCCATCAATATAAATATCTCTCACTTATTTAAA
cleaved RNA product abundance [1]: 0.141
cleaved RNA product abundance [2]: 0.312

ACAGACGAAGGAGCCGCAAAGAAGTTATTAAGGGATGAATATTCCCACAATATAAATATCTCTCACTTATTTAAA
cleaved RNA product abundance [1]: 0.177
cleaved RNA product abundance [2]: 0.178

ACAGACGAAGGAGCCGCAAAGAAGTTATTAAGGGATGAATATTCCCGCAATATAAATATCTCTCACTTATTTAAA
cleaved RNA product abundance [2]: 0.221

ACAGACGAAGGAGCCGCAAAGAAGTTATTAAGGGATGAATATTCCCTAAATATAAATATCTCTCACTTATTTAAA
cleaved RNA product abundance [2]: 0.462

ACAGACGAAGGAGCCGCAAAGAAGTTATTAAGGGATGAATATTCCCTCAAAATAAATATCTCTCACTTATTTAAA
cleaved RNA product abundance [1]: 0.231
cleaved RNA product abundance [2]: 0.224

ACAGACGAAGGAGCCGCAAAGAAGTTATTAAGGGATGAATATTCCCTCAAGATAAATATCTCTCACTTATTTAAA
cleaved RNA product abundance [1]: 0.254
cleaved RNA product abundance [2]: 0.243

ACAGACGAAGGAGCCGCAAAGAAGTTATTAAGGGATGAATATTCCCTCAATAAAAATATCTCTCACTTATTTAAA
cleaved RNA product abundance [2]: 0.156

ACAGACGAAGGAGCCGCAAAGAAGTTATTAAGGGATGAATATTCCCTCAATATAAATATCTCTCACTTATTTAAA
cleaved RNA product abundance [1]: 0.675
cleaved RNA product abundance [2]: 0.699
cleaved RNA product abundance [3]: 0.84

ACAGACGAAGGAGCCGCAAAGAAGTTATTAAGGGATGAATATTCCCTCAATATAAATCTCTCTCACTTATTTAAA
cleaved RNA product abundance [2]: 0.471

ACAGACGAAGGAGCCGCAAAGAAGTTATTAAGGGATGAATATTCCCTCACTATAAATATCTCTCACTTATTTAAA
cleaved RNA product abundance [1]: 0.121

ACAGACGAAGGAGCCGCAAAGAAGTTATTAAGGGATGAATATTCCCTCATTATAAATATCTCTCACTTATTTAAA
cleaved RNA product abundance [2]: 0.316

ACAGACGAAGGAGCCGCAAAGAAGTTATTAAGGGATGAATATTCCCTCCATATAAATATCTCTCACTTATTTAAA
cleaved RNA product abundance [2]: 0.193

ACAGACGAAGGAGCCGCAAAGAAGTTATTAAGGGATGAATATTCCCTTAATATAAATATCTCTCACTTATTTAAA
cleaved RNA product abundance [1]: 1.01
cleaved RNA product abundance [2]: 0.526

ACAGACGAAGGAGCCGCAAAGAAGTTATTAAGGGATGAATATTCCGTCAATATAAATATCTCTCACTTATTTAAA
cleaved RNA product abundance [2]: 0.194

ACAGACGAAGGAGCCGCAAAGAAGTTATTAAGGGATGAATATTCCTTCAATATAAATATCTCTCACTTATTTAAA
cleaved RNA product abundance [2]: 0.546

ACAGACGAAGGAGCCGCAAAGAAGTTATTAAGGGATGAATATTCGCTCAATATAAATATCTCTCACTTATTTAAA
cleaved RNA product abundance [2]: 0.086

ACAGACGAAGGAGCCGCAAAGAAGTTATTAAGGGATGAATATTCTCTCAATATAAATATCTCTCACTTATTTAAA
cleaved RNA product abundance [1]: 0.265
cleaved RNA product abundance [2]: 0.343

ACAGACGAAGGAGCCGCAAAGAAGTTATTAAGGGATGAATATTGCCTCAATATAAATATCTCTCACTTATTTAAA
cleaved RNA product abundance [2]: 0.107

ACAGACGAAGGAGCCGCAAAGAAGTTATTAAGGGATGAATATTTCCTCAATATAAATATCTCTCACTTATTTAAA
cleaved RNA product abundance [1]: 0.188
cleaved RNA product abundance [2]: 0.186

ACAGACGAAGGAGCCGCAAAGAAGTTATTAAGGGATGAATCAGCCCTCAATATAAATATCTCTCACTTATTTAAA
cleaved RNA product abundance [2]: 0.813

ACAGACGAAGGAGCCGCAAAGAAGTTATTAAGGGATGAATCATACCTCAATATAAATATCTCTCACTTATTTAAA
cleaved RNA product abundance [1]: 0.164
cleaved RNA product abundance [2]: 0.215

ACAGACGAAGGAGCCGCAAAGAAGTTATTAAGGGATGAATCATCCATCAATATAAATATCTCTCACTTATTTAAA
cleaved RNA product abundance [2]: 0.219

ACAGACGAAGGAGCCGCAAAGAAGTTATTAAGGGATGAATCATCCCACAATATAAATATCTCTCACTTATTTAAA
cleaved RNA product abundance [1]: 0.21
cleaved RNA product abundance [2]: 0.192

ACAGACGAAGGAGCCGCAAAGAAGTTATTAAGGGATGAATCATCCCCCAATATAAATATCTCTCACTTATTTAAA
cleaved RNA product abundance [2]: 0.296

ACAGACGAAGGAGCCGCAAAGAAGTTATTAAGGGATGAATCATCCCTAAATATAAATATCTCTCACTTATTTAAA
cleaved RNA product abundance [1]: 0.597
cleaved RNA product abundance [2]: 1

ACAGACGAAGGAGCCGCAAAGAAGTTATTAAGGGATGAATCATCCCTCAAGATAAATATCTCTCACTTATTTAAA
cleaved RNA product abundance [2]: 0.27

ACAGACGAAGGAGCCGCAAAGAAGTTATTAAGGGATGAATCATCCCTCAATAAAAATATCTCTCACTTATTTAAA
cleaved RNA product abundance [2]: 0.197

Source: the supplement of paper PMC11780869
